# Experimental data taken from patent US20100233095A1.
# pyrene = pyrene (fluorescent label)
# B1: Peptide 22 (SEQ ID NO:2) (peptide)
# peptide: pyrene-KLVFFAEDVGSNKHAIIELMK(pyrene)-NH2
# Target: fibrillar amyloid target protein (UniProt P05067)
# Assay: pyrene excimer:monomer fluorescence ratio of di-pyrene probe in the presence of fibrillar amyloid target protein
binder,measurement,value
B1,maximal signal gain relative to the reference peptide (SEQ ID NO:1),2.6 fold
